Results reported in PMC12381214, “Multi-state catch bond formed in the Izumo1:Juno complex that initiates human fertilization” (Nature Communications, 2025).

Columns and labels:
Conditions in all cases: both partners purified
[1] = biological target: T1, human Juno ectodomain, wild type (Juno-His10-SpyTag-LPETGG) (human, glycosylated (sites not given); SpyTag joined by an isopeptide bond to a SpyCatcher polyprotein); experiment: flow cytometry-based bead-binding assay; Juno held on 3.75 µm polystyrene beads through the ybbR AFM-handle; Izumo1 labelled with SpyCatcher-GFP, 5-fold dilution series of 7 dilutions from 100x the expected KD, 3 h, 0.1% tween 20 in TBS-G (20 mM Tris-HCl, 300 mM NaCl, 10% glycerol, pH 8.0); Hill equation fitted
T1 construct: Juno, human, ectodomain (ECD), UniProt A6ND01; the stretch between the HBM signal peptide and His10 in the printed construct; the printed construct has a D between the signal's ...YIYA and G20 that may stay on the mature protein; also called Folr4; Izumo1r; source: Sf9 (ExpiSF) cells, baculovirus, secreted, purified (Ni resin, SEC); not shown: HBM secretion signal peptide, N-terminal, cleaved; …

[2] = biological target: T2, human Juno ectodomain H177Q, infertility-associated variant (JunoH177Q-His10-SpyTag-LPETGG) (human, H177Q (stands in the printed letters), glycosylated (sites not given); SpyTag joined by an isopeptide bond to a SpyCatcher polyprotein); experiment: as above
T2 construct: Juno, human, ectodomain (ECD), UniProt A6ND01, natural variant H177Q found in patients; also called HBM-JunoH177Q-His10-SpyTag-LPETGG; source: Sf9 (ExpiSF) cells, baculovirus, secreted, purified (Ni resin, SEC); not shown: HBM secretion signal peptide, N-terminal, cleaved; His10, C-terminal, kept; SpyTag, C-terminal, kept; LPETGG sortase motif, C-terminal, kept

[3] = biological target: T1, human Juno ectodomain, wild type …; experiment: AFM single-molecule force spectroscopy (constant speed); Izumo1 on the cantilever and Juno on the cover glass, each covalently held by its C-terminus through a ddFLN4-ELP-ybbR handle; contact 0.2 s, retraction at 800, 1600, 3200, 6400 nm·s^−1; PBS pH 7.4

T1 sequence (chain, as listed by the source): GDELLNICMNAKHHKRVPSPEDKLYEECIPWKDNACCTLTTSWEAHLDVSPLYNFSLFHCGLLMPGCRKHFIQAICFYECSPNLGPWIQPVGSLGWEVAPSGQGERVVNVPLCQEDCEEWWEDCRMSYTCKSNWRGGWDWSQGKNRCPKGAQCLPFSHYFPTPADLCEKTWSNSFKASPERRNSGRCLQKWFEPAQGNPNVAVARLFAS
T2 sequence (chain, as listed by the source with the stated changes): as the sequence (chain, as listed by the source) above, with H158Q counted along it

B1: human Izumo1 ectodomain, wild type (Izumo1-His10-SpyTag-LPETGG) (domain or fragment)
chain: CVICDPSVVLALKSLEKDYLPGHLDAKHHKAMMERVENAVKDFQELSLNEDAYMGVVDEATLQKGSWSLLKDLKRITDSDVKGDLFVKELFWMLHLQKETFATYVARFQKEAYCPNKCGVMLQTLIWCKNCKKEVHACRKSYDCGERNVEVPQMEDMILDCELNWHQASEGLTDYSFYRVWGNNTETLVSKGKEATLTKPMVGPEDAGSYRCELGSVNSSPATIINFHVTVLP
modifications: glycosylated (sites not given); SpyTag joined by an isopeptide bond to a SpyCatcher polyprotein
notes: Izumo1, human, ectodomain (ECD), UniProt Q8IYV9; the stretch between the HEM signal peptide and His10 in the printed construct; also called HEM-Izumo1-His10-SpyTag-LPETGG; Izumo1-GFP; source: Sf9 (ExpiSF) cells, baculovirus, secreted, purified (Ni resin, SEC); not shown: HEM secretion signal peptide, N-terminal, cleaved; His10, C-terminal, kept; SpyTag, C-terminal, kept; LPETGG sortase motif, …
**Q.** How did the Kd [1] turn out when B1 was run?
**A.** 45 nM

**Q.** And the Kd [2]?
**A.** 64 nM

B2: human Izumo1 ectodomain E71A (Izumo1E71A-His10-SpyTag-LPETGG) (domain or fragment)
chain: CVICDPSVVLALKSLEKDYLPGHLDAKHHKAMMERVENAVKDFQELSLNADAYMGVVDEATLQKGSWSLLKDLKRITDSDVKGDLFVKELFWMLHLQKETFATYVARFQKEAYCPNKCGVMLQTLIWCKNCKKEVHACRKSYDCGERNVEVPQMEDMILDCELNWHQASEGLTDYSFYRVWGNNTETLVSKGKEATLTKPMVGPEDAGSYRCELGSVNSSPATIINFHVTVLP
modifications: glycosylated (sites not given); SpyTag joined by an isopeptide bond to a SpyCatcher polyprotein
notes: Izumo1, human, ectodomain (ECD), UniProt Q8IYV9, with E71A; also called HEM-Izumo1E71A-His10-SpyTag-LPETGG; source: Sf9 (ExpiSF) cells, baculovirus, secreted, purified (Ni resin, SEC); not shown: HEM secretion signal peptide, N-terminal, cleaved; His10, C-terminal, kept; SpyTag, C-terminal, kept; LPETGG sortase motif, C-terminal, kept
**Q.** Does B2 bind [3]?
**A.** binds

B3: human Izumo1 ectodomain R160A (Izumo1R160A-His10-SpyTag-LPETGG) (domain or fragment)
chain: CVICDPSVVLALKSLEKDYLPGHLDAKHHKAMMERVENAVKDFQELSLNEDAYMGVVDEATLQKGSWSLLKDLKRITDSDVKGDLFVKELFWMLHLQKETFATYVARFQKEAYCPNKCGVMLQTLIWCKNCKKEVHACAKSYDCGERNVEVPQMEDMILDCELNWHQASEGLTDYSFYRVWGNNTETLVSKGKEATLTKPMVGPEDAGSYRCELGSVNSSPATIINFHVTVLP
modifications: glycosylated (sites not given); SpyTag joined by an isopeptide bond to a SpyCatcher polyprotein
notes: Izumo1, human, ectodomain (ECD), UniProt Q8IYV9, with R160A; also called HEM-Izumo1R160A-His10-SpyTag-LPETGG; source: Sf9 (ExpiSF) cells, baculovirus, secreted, purified (Ni resin, SEC); not shown: HEM secretion signal peptide, N-terminal, cleaved; His10, C-terminal, kept; SpyTag, C-terminal, kept; LPETGG sortase motif, C-terminal, kept
**Q.** Does B3 bind [3]?
**A.** binds

B4: human Izumo1 ectodomain H157A (Izumo1H157A-His10-SpyTag-LPETGG) (domain or fragment)
chain: CVICDPSVVLALKSLEKDYLPGHLDAKHHKAMMERVENAVKDFQELSLNEDAYMGVVDEATLQKGSWSLLKDLKRITDSDVKGDLFVKELFWMLHLQKETFATYVARFQKEAYCPNKCGVMLQTLIWCKNCKKEVAACRKSYDCGERNVEVPQMEDMILDCELNWHQASEGLTDYSFYRVWGNNTETLVSKGKEATLTKPMVGPEDAGSYRCELGSVNSSPATIINFHVTVLP
modifications: glycosylated (sites not given); SpyTag joined by an isopeptide bond to a SpyCatcher polyprotein
notes: Izumo1, human, ectodomain (ECD), UniProt Q8IYV9, with H157A; also called HEM-Izumo1H157A-His10-SpyTag-LPETGG; source: Sf9 (ExpiSF) cells, baculovirus, secreted, purified (Ni resin, SEC); not shown: HEM secretion signal peptide, N-terminal, cleaved; His10, C-terminal, kept; SpyTag, C-terminal, kept; LPETGG sortase motif, C-terminal, kept
**Q.** Does B4 bind [3]?
**A.** binds

B5: human Izumo1 ectodomain K150A (Izumo1K150A-His10-SpyTag-LPETGG) (domain or fragment)
chain: CVICDPSVVLALKSLEKDYLPGHLDAKHHKAMMERVENAVKDFQELSLNEDAYMGVVDEATLQKGSWSLLKDLKRITDSDVKGDLFVKELFWMLHLQKETFATYVARFQKEAYCPNKCGVMLQTLIWCANCKKEVHACRKSYDCGERNVEVPQMEDMILDCELNWHQASEGLTDYSFYRVWGNNTETLVSKGKEATLTKPMVGPEDAGSYRCELGSVNSSPATIINFHVTVLP
modifications: glycosylated (sites not given); SpyTag joined by an isopeptide bond to a SpyCatcher polyprotein
notes: Izumo1, human, ectodomain (ECD), UniProt Q8IYV9, with K150A; also called HEM-Izumo1K150A-His10-SpyTag-LPETGG; source: Sf9 (ExpiSF) cells, baculovirus, secreted, purified (Ni resin, SEC); not shown: HEM secretion signal peptide, N-terminal, cleaved; His10, C-terminal, kept; SpyTag, C-terminal, kept; LPETGG sortase motif, C-terminal, kept
**Q.** B5 was tested. Which Kd [1] did it give?
**A.** 110 nM
